# Source: the DeepSol protein solubility set
# Assay: soluble on expression in E. coli; label from the status in PepcDB or PDB records
row,Sequence,soluble on expression in E. coli
1,MKKSAFIFSDGELKRKDSTVLFESEDSKNYLPIEDISDIYIFGEVTVTKKFLELATQKEILLHFYNYNEYYVGTYYPREHYNSGFMILKQAEHYLDEEKRMAIAKKFIHGSVKNMLAVLKYYNNREKDLDRQITAISDLAEKIDEMDEINKLMAIEGNIREIYYGSFDIIVDDEYFEFGKRTKQPPKNRMNSLISFGNSILYTTVLSEIYKTHLDPRIGYLHSTNHRRFTLNLDVAEIFKPIIVDRVIFTLIGKKMLGEKHFEEKAGGIVLNDKGRKQFVAQMLEKLNATLMYKPLGREVSYRRLIRLELYKLEKHLMGEQEYKPYVASW,soluble
2,MTDNSNIRVVVGMSGGVDSSVTALLLKEQGYDVIGVFMKNWDDTDEFGVCTATEDYKDVAAVADQIGIPYYSVNFEKEYWDRVFEYFLAEYRAGRTPNPDVMCNKEIKFKAFLDYAMTLGADYVATGHYAQVTRDENGIVHMLRGADNNKDQTYFLSQLSQEQLQKTLFPLGHLQKPEVRRIAEEAGLATAKKKDSTGICFIGEKNFKDFLGQYLPAQPGRMMTVDGRDMGEHAGLMYYTIGQRGGLGIGGQHGGDNKPWFVVGKDLSKNILYVGQGFYHDSLMSTSLTASEIHFTRDMPNEFKLECTAKFRYRQPDSKVTVYVKGNQARVVFDDLQRAITPGQAVVFYNEQECLGGGMIDQAYRDDKICQYIMAGDPLEHHHHHH,not soluble
3,MSLSSPQFEENSFECPVEIGISNMCGKRDSMQDTSVVITNFLGIGFHLLSLFDGHSGIYSSCFCASQFPNCFANILSKNPQQSIEDALIHSFKEMNQKINEYKFNDGTAANVVLITPQRYFIANVGDSRCILVKKDSIIILNEDHTINNPDEVQRIRKLNGFIDHSKVNGEIVLTRTLGDIQCSSVCSCIPQITCHERGIDDICIVLCCDGVFDVLSNELVGEICRKKSNESASVLSSLIRDIAYNNGCKDNISCIVCKLMSEGHHHHHH,soluble
4,SSDKDDIETPLLTEAAPILEDGNCEPAKNSESVDQGAKPESKSEPVVSTRKRPETKPSSDLETSKVLPIQDNVSKDVPQTRWGYWGSWGKSILSSASATVATVGQGISNVIEKAETSLGIPSPSEISTEVKYVAGETNAKENENSSPVAGAFGVFSTISTAVQSTGKSVISGGLDALEFIGKKTMDVIAEGDPGFKRTKGLMNRNATLSQVLREAKEKEEIRTSNEVTVETDKKTHYGLLFDEFQGLSHLEALEMLSQESEIKVKSILNSLSGEELETLKVELEQLKETFSLAEFCEEEEEEKKGDEDFTKDITELFSQLHVSSKPEKLARARNTAHEWIRKSLTKPLAENEEGEKQSEAENTEQVNKNSIEDIHAFAIRSLAELTACSIELFHKTAALVLHGRKQEVTAIERSQTLSQMTIVLCKELSSLSKEFTTCLTTAGVKEMADVLNPLITAVFLEASNSASYIQDAFQLLLPVLEISLIENKIESHRHELQGQKPLLEH,soluble
5,MAIRLPAEWEEQDGVLIAWPHPGSDWYPWLRLVEPVFAQIVREITRFETALVVAADGERTAALLEAVGARMERVAIVELPTNDTWARDFGPVTVERDGRPVLLDFGFNGWGLKFAADRDNLVTRRLRHLGIFGDIPAEMVGLVLEGGSIESDGRGTVLTTAECLLNPNRNPHLSRAEIEEALARYLGTERVLWLENGFLAGDDTDSHVDTLARLAPDDTIVYVRCDDATDEHYAALFMMEKELANLRTREGSPYRLIPLPWPRACFDHEGQRLPATYANFLVINGAVLVPVYDDPADEAALEAIGRAFPGREIVGIDCRPLIIQHGSLHCVTMQLPKGVLPCPNLEHHHHHH,soluble
6,MAGAITLACTIRFEANAEHVYLSSGTKQTVYHYPFPMSTIHITLNGERKEVPAGSTVSELLVIADADRQPVAVVVNEHIVRPDQRDSYILQERDQVEILVFAGGGLEHHHHHH,soluble
7,MVYKPLEASDRTELRALQSDRLQRIVTHAHENVPFYREKLDAAGVSPEDIQSIDDITKLPMTTKEDFRDEYPDGLFAVDDEEVARIHASSGTTGKPKIVSYTDDDLDTWSEVVARSLAASGTEAGDTVQNAYGYGLFTGGLGIHYGTEELGASVVPIGSGQTQRQVELMTDLESDVFTCTPSYALYLAETAEEMGHDPRDLPISTIIFGAEPCTDPMREEIEERLGVDGIDIYGLSEIIGPGVSCECHEAKDGLHIWEDHFYPEVIDPHTKEPVEEGEEGELVLTTLTKEALPVFRYRTGDLTTLNYDECACGRTMVRMDNVTGRTDDLLIVRGVNLYPSEIEHAVLDIDGVAPHYRIDLYKEDNLDILELTIERTAEQGPGDKALEDEIIERLENVLAFTPDELELVAPGSIERTQVGKVKRVYDHRD,not soluble
8,VYNYMVDDTRSQLSIFMDEIAAQLEVDHTGHLSLAAQLSDPRFSRPYSGLYWSASTDSSLERSRSLWDKRIEYKGLDKDAYGARDEKLITLEKALYLPDYDGPIHIIVGIDEEPIKSTLQ,not soluble
9,MGSDKIHHHHHHMDKLSFNIFPNVNFIDLCMYQFGHEQCEPGHSFGPATRNHYLFHYVLSGTGTLMADNAKGITQTYNIKSGQGFLIFPGQINTYIADDKLPWEYIWIEFDGLRVKEALTTTELTKNNPVYHTHSKDIREKLVEEMLYITRHPSESPYHLIGHMYLFLDYLMQSAKSSKLVPGGKMSDFYIKEAMNYIEQNFQNDISIEDIAGVCGINRSYLGKIFKNSVGHSPQEFLMNYRMIKATELLKLTSLSIADVGSAVGYENQLHFSRAFKNIYGVAPREWRNEHK,not soluble
10,MSLALAVQNTDTIGVVVTDVTDAFFAILVKAVDKVAEAHQKTILIGIGYHHAEKEREAINTLLRKRCSSLVVHSKALSDDELSHYLNTVQGMVIINRVIKGYEHRCVSLDNQKGTYLATEMLIRYGHQHIAYIGSNHAIFDEVERRNGYLAALKDHNYLIIEQAITLNSPDFEGGEKAMIDLLSYNKNLTAVVAYNDSMAAGAISVLNENNISVPSQFSIIGFDDMPIARYLIPKLTTIRYPIDLMATYAAKLALSLTDEKIITPPVVQFNPTLVRRFSVESREGHHHHHH,soluble
11,VQAVAVLKGDAGVSGVVKFEQASESEPTTVSYEIAGNSPNAERGFHICEFGDATNGCVSAGPHFNPFKKTHGAPTDEVRHVGDMGNVKTDENGVAKGSFKDSLIKLIGPTSVVGRSVVIHAGQDDLGKGDTEESLKTGNAGPRPACGVIGLTN,soluble
12,MAHHHHHHMAIVGDSLNKRRNYTVCGLVSNPLFQKCAEVAQYVAEEYSDEFYVDIFREMPCEFYSRREQLLNSKKIEDGGMEVIVLVGADGHTGPTNGEGEAMSGDDFLNMMQKATCFRVLNIPPERPDSYENMAHLSWKNYLRERGNTYCWMEISIGEMVHGRVTFELYSRVVPHTCSNFWHLCKGDLSRDADEGEEQVPILSYKNSTFFRTLHGAWVMGGDISGGNGRGGYSIYGRYFPNESYAIPHDRVGVLGMCNDGGDTNASSFYITMKAMQWMNGRYVAFGRVVDGLEVVHAIHAVDVKHNQCPKKVITISDCGVIDLTE,not soluble
13,MCMYGGIYVNNGYSPMSSNQQNVSVEHDIIMRGRRVIDITGVKQVESFDSEEFLLETVMGFLTIRGQNLQMKNLDVEKGVVSIKGKVHEMLYIDENQGEKTKGFFSKLFKLEHHHHHH,soluble
14,DKIGTAVLQGVMQGRRAKDVAKEIEQITDATASRATFIARDQTSKMNAAFNEIRQVGLGIESYTWQTSGDERVREDHAAHDGTVFRWSDPPATGHPGQDYNCRCVAIPNVTLEGP,not soluble
15,MNRHSTTSGNLNTVFGYVDEETVSQGISASYVGSGKLVGNRLVRHTQTSLFSSANTW,not soluble
16,MGSDKIHHHHHHMVKDKNDVGPKTVAILGAGGKMGARITRKIHDSAHHLAAIEIAPEGRDRLQGMGIPLTDGDGWIDEADVVVLALPDNIIEKVAEDIVPRVRPGTIVLILDAAAPYAGVMPERADITYFIGHPCHPPLFNDETDPAARTDYHGGIAKQAIVCALMQGPEEHYAIGADICETMWSPVTRTHRVTTEQLAILEPGLSEMVAMPFVETMVHAVDECADRYGIDRQAALDFMIGHLNVEIAMWFGYSPKVPSDAALRLMEFAKDIVVKEDWREALNPAKVKQAAELIAGK,not soluble
17,MSNENHEELNDQLIVRREKVDTLREEGIDPFGEKFIRSISPEEIETKFADKSKEELEEAAIEVSVAGRIMTKRVKGKVGFTHIQDRFHQLQIYIRKDAIGEDAYAVFKLADLGDIIGIKGTIFRTNTGELSVKATEFTLLSKSLRPLPDKYHGLKDVEQRYRQRYLDLITNEESQNRFVMRSKILKYTRDYMDNQGFLEVETPVLHTIAGGAAAKPFITHHNALDMELYLRIALELHLKRLIVGGMDKVYEIGRVFRNEGTSTRHNPEFTMLESYAAYEDYEDVMDLVEGLVSTVCKQVNGTTEITYGEYKVDLTPNWRRIHMADAVKEYVGVDFWNVTSDEEARELAKKHDVPVTEHMTYGHILNEFFETYVEEKLIQPTFVYGHPVEISPLAKKNKEDERFTDRFELFIVGREHANAFSELNDPIDQRERFEAQMKEREQGNDEAHGMDADFLEALEYGLPPTGGLGIGIDRLVMLLTDAPSIRDILLFPTMKHRD,not soluble
18,MLETETGRYSDTLRSALVSLDGDNAWALSESWCGTIQWICPSPYRPHHGRKNWFLGIGRFTADEQEQSDAIRYETLRSSGPGGQHVNKTDSAVRATHLASGISVKVQSERSQHANKRLARLLIAWKLEQQQQENSAALKSQRRMFHHQIERGNPRRTFTGMAFIEGLEHHHHHH,not soluble
19,MTIHQHPHVTDRDAHFVGGGIASLAGAAFLVRDGNMPGENIHVYEKLDVVGGAMDGAGDPDEAYLIRGGRMFNYPAYECTWDLFETIPSLEDDSRSVKAVMDEFNETHPSYAKTRLMHEGERIDAGEYGLTRQHRQSIARLLLTPEPRLGDTRIEEWFDESFLETNFWYVWATIFAFQPWHSVAEVRRYMYRFLHEFPQLHTMEGIDRTKYNQYDSMILPLRRWLEDRGVSFEYGHEVTDMDIVPSRTGRTVERLYCETDSGTETVPVEPSDLVFVTNGSMTDGSSIGGMDEAPELNETGASWELWKSIAEDNPQFGNPSVFADNVTETKWESFTVTLHNTDLFDHIVDFTNEEPGNGLVTYLGSNWLLSTVVAAQPHFANQPDDVKVFWGYALFPDREGNYVEKPMSECTGREILQELCYHLQCEERLPEILDDVTCIPAMMPFITAHFQPREPGDRPDVVPDGSNNLAFLGQYAEQPRDVVFTVEYSVRSAMTAVYEMLDLDREVPPVSKHYRKPGVIADTVRAAYRLEHHHHHH,not soluble
20,AHHHHHHGSVKIGVIGLQGDVSEHIEATKRALERLGIEGSVIWVKRPEQLNQIDGVIIPGGESTTISRLMQRTGLFDPLKKMIEDGLPAMGTCAGLIMLAKEVIGATPEQKFLEVLDVKVNRNAYGRQVDSFEAPVKLAFDDKPFIGVFIRAPRIVELLSDKVKPLAWLEDRVVGVEQGNVIGLEFHPELTDDTRIHEYFLKKIV,soluble
21,MSLRKRLTQLFPFLLPVRRIQRKLCFYTKMYLDRNHYAKAKAPEFLPFCIYETKSKLLNENTGMDIKYQENKVFNLRLAAEPVNGLLIRPGETFSFWQRVRYAEKNERYKDGLCVVNDELVTVPGGGLCHLSNLLFWLFLHTPLTIVERHAHEIKDFPSPDEDEPDGVDATIHEGWLDLKVKNDTNLTFQIELSIDGPYIYGRIFMDQAKGYSYEVVNRDKRFLQKEGKIFERVSVCRQVIDNKSKQVISENMLYTDVFEIGYPLPEGTAIAEEGHHHHHH,soluble
22,EPRRPRAGPEELGKILQGVVVVLSGFQNPFRSELRDKALELGAKYRPDWTRDSTHLICAFANTPKYSQVLGLGGRIVRKEWVLDCHRMRRRLPSQRYLMAGPGSSSEEDEASHSGG,soluble
